Assay results as given in patent US20200181605A1 (SHANGHAI INSTITUTES FOR BIOLOGICAL SCIENCES CHINESE ACADEMY …, published 2020).

Target: T1, endogenous Brd4 protein of untargeted androgenetic haploid embryonic stem cells (NC) (mouse, UniProt Q9ESU6 1-1400, limits assumed)
T1 construct: Endogenous, untagged; a mixture of the large and small isoforms in the cell lysate; also called Brd4 large protein (about 250 kDa); Brd4 small protein (110/120 kDa)
Assay: Co-IP with Brd4 antibody-coupled beads, western blot

binding result: binds
B1: CDK9 (enzyme, UniProt Q99J95 1-372, looked up)
chain: MAKQYDSVECPFCDEVTKYEKLAKIGQGTFGEVFKAKHRQTGQKVALKKVLMENEKEGFPITALREIKILQLLKHENVVNLIEICRTKASPYNRCKGSIYLVFDFCEHDLAGLLSNVLVKFTLSEIKRVMQMLLNGLYYIHRNKILHRDMKAANVLITRDGVLKLADFGLARAFSLAKNSQPNRYTNRVVTLWYRPPELLLGERDYGPPIDLWGAGCIMAEMWTRSPIMQGNTEQHQLALISQLCGSITPEVWPNVDKYELFEKLELVKGQKRKVKDRLKAYVRDPYALDLIDKLLVLDPAQRIDSDDALNHDFFWSDPMPSDLKGMLSTHLTSMFEYLAPPRRKGSQITQQSTNQSRNPATTNQTEFERVF
notes: Endogenous protein co-precipitated from mouse ES cell lysate
